Source: the supplement of paper PMC6757056
± gives the standard deviation of the averaged measurements.

B1: library; a variant is named by its letters at N, in order (parent)
chain: GCUGUCACCGGUGCUUGGUACGUUAUAUUCAGCCGGUCUGAUGAGUCUNNNNNNAGACGAAACAGC

Columns and labels:
(6R,S)-folinic acid [1] = variants of: B1; assay: normalized RNA/DNA level without ligand (relative to sTRSVctl = 100) (log10 (% of sTRSVctl)); HEK293T overexpressing SLC46A1; higher = less ribozyme self-cleavage, higher mRNA level; settings: without (6R,S)-folinic acid; ligand present: no
Summary of the method: (§1)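 Ribozyme switch library plasmids linked to reporters were introduced into HEK293T cells at 4 µg per 6-well well, with ligand, if any, added 1 h before. Total RNA was extracted with EDTA 72 h later, reverse-transcribed, amplified, barcoded and sequenced. RNA level was computed from RNA over DNA reads relative to a spiked-in non-cleaving sequence or the top sequences, then scaled and log-transformed. The top set was 25 sequences, values were ×100 and log10, and the cutoff was ≥100 DNA reads.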

(6R,S)-folinic acid [2] = variants of: B1; assay: normalized RNA/DNA level with ligand (relative to sTRSVctl = 100) (log10 (% of sTRSVctl)); HEK293T overexpressing SLC46A1; ligand concentration (+) RNA-Seq: 6 mM; higher = less ribozyme self-cleavage, higher mRNA level; settings: with (6R,S)-folinic acid; ligand present: yes
Summary of the method: as §1

Variant | normalized RNA/DNA level without ligand (log10) ((6R,S)-folinic acid [1]) | normalized RNA/DNA level with ligand (log10) ((6R,S)-folinic acid [2])
GGCUAU | 2.051 ± 0.0061 | 2.01 ± 0.027
GGCUAC | 2.02 ± 0.042 | 2.05 ± 0.021
GGCUAG | 2.063 ± 0.0075 | 2.042 ± 0.004
GGCUAA | 2.036 ± 0.011 | 2.05 ± 0.033
CGAUCC | 2.05 ± 0.023 | 2.06 ± 0.036
CGAUCG | 2.042 ± 0.013 | 2.05 ± 0.034
CGAUCA | 2.008 ± 0.0093 | 2.04 ± 0.05
CGAUCU | 2.062 ± 0.0057 | 2.06 ± 0.03
UGCGUC | 2.09 ± 0.0072 | 2.04 ± 0.044
UGCGUU | 1.972 ± 0.018 | 2 ± 0.051
UGCGUA | 1.904 ± 0.015 | 1.98 ± 0.035
GGCGCU | 2.113 ± 0.014 | 2.1 ± 0.057
GGCGCG | 2.085 ± 0.011 | 2.06 ± 0.05
GGCGCC | 2.093 ± 0.017 | 2.07 ± 0.023
GGCGCA | 2.06 ± 0.0043 | 2.051 ± 0.019
GGCGUC | 2.058 ± 0.012 | 2.01 ± 0.047
GGCGUA | 2.068 ± 0.004 | 2.04 ± 0.03
GGCGUU | 2.08 ± 0.027 | 2.06 ± 0.034
GGCGUG | 2.071 ± 0.0047 | 2.06 ± 0.033
CGCUAG | 2.007 ± 0.0038 | 2.025 ± 0.011
CGCUAC | 2.0081 ± 0.001 | 2.03 ± 0.048
CGCUAU | 1.981 ± 0.0029 | 2 ± 0.024
CGCUAA | 1.97 ± 0.019 | 1.99 ± 0.055
AGCAGU | 1.991 ± 0.0037 | 2.01 ± 0.028
AGCAGG | 1.944 ± 0.0028 | 2.01 ± 0.042
AGCAGC | 2.028 ± 0.0032 | 2.03 ± 0.054
AGCACG | 1.99 ± 0.033 | 2.025 ± 0.01
AGCACC | 2.08 ± 0.031 | 2 ± 0.03
AGCACA | 2.0177 ± 0.00097 | 2 ± 0.04
